Data on 4 proteins can be found in US20070077617.

One data set addresses fusion protein PRMT. The following applies: scale: relative.
Data set [1] addresses motilin fusion protein PMT6D.
Data set [2] concerns the target motilin fusion protein PMT7D.
In data set [3] the target is human calcitonin precursor fusion protein PCT.
In data set [4] the target is human adrenocorticotropic hormone(1-24) fusion protein PAC.

Substitutions are numbered along the chain they refer to. Numbers in names are those of the source.

fusion protein PRA, sequence (chain, as listed by the source): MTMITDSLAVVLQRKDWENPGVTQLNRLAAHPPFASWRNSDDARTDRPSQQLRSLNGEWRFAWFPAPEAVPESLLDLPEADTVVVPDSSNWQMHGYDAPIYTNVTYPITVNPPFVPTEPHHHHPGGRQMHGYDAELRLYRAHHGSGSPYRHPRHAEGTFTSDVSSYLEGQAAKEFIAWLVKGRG
fusion protein PRY, sequence (chain, as listed by the source): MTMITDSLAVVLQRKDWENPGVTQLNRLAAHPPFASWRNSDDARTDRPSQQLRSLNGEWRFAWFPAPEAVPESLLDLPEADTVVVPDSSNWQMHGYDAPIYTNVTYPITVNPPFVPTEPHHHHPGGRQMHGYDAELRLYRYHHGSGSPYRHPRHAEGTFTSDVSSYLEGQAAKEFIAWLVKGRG
fusion protein PRI, sequence (chain, as listed by the source): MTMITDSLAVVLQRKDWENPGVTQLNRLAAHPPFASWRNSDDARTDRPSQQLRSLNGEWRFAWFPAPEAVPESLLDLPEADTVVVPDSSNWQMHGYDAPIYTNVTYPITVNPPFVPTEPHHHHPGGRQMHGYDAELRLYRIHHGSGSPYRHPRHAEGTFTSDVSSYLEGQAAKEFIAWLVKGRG
fusion protein PMT, sequence (chain, as listed by the source): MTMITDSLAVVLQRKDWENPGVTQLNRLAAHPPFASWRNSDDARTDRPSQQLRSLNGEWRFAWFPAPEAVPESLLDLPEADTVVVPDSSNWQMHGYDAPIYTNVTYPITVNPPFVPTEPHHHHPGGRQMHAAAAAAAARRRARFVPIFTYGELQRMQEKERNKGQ
fusion protein PRG, sequence (chain, as listed by the source): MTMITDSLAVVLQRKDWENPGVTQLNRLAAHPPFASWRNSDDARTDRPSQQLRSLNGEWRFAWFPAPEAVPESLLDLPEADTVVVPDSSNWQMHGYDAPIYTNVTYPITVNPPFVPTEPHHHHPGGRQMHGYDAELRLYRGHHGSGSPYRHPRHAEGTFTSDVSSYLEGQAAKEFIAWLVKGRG
fusion protein PRQ, sequence (chain, as listed by the source): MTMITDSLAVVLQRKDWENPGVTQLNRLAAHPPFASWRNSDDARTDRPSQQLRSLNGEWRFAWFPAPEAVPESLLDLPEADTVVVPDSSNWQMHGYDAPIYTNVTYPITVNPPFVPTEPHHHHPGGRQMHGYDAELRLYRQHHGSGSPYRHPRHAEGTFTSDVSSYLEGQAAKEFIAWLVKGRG
fusion protein PRK, sequence (chain, as listed by the source): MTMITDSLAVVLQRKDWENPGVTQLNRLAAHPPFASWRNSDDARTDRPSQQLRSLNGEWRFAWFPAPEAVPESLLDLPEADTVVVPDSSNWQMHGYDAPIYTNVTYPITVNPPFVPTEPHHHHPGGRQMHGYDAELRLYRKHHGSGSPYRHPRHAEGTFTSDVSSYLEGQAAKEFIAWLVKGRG
fusion protein PRL, sequence (chain, as listed by the source): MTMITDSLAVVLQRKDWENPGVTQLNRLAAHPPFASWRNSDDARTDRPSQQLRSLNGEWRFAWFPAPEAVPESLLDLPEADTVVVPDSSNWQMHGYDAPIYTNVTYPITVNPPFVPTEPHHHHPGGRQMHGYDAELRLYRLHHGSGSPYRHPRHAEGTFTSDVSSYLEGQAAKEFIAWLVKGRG
fusion protein PRN, sequence (chain, as listed by the source): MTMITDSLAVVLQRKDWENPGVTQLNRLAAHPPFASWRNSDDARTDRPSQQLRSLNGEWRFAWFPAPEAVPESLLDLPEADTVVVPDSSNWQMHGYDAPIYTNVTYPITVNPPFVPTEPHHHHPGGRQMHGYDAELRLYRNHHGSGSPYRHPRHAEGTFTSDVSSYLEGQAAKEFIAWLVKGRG
fusion protein PRC, sequence (chain, as listed by the source): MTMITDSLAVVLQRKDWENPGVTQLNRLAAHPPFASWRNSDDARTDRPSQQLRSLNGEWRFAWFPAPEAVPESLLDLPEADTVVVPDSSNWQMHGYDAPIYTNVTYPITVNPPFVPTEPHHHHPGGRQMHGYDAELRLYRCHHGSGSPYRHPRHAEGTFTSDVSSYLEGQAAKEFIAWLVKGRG
motilin fusion protein PMT6D, sequence (chain, as listed by the source): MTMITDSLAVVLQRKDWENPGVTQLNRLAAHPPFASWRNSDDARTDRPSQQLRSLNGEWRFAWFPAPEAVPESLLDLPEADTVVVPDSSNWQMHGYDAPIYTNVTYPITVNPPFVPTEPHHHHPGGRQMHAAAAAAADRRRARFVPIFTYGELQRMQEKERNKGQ
fusion protein PRM, sequence (chain, as listed by the source): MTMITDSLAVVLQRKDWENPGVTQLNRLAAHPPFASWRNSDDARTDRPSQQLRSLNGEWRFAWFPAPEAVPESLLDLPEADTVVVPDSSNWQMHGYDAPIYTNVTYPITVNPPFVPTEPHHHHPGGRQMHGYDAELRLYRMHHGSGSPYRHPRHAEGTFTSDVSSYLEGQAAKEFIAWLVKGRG
fusion protein PRR, sequence (chain, as listed by the source): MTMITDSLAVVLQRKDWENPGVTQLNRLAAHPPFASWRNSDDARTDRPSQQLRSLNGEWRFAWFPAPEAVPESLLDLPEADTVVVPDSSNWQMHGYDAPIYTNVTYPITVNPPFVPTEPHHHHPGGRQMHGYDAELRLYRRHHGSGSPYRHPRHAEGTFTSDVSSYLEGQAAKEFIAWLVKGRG
fusion protein PRS, sequence (chain, as listed by the source): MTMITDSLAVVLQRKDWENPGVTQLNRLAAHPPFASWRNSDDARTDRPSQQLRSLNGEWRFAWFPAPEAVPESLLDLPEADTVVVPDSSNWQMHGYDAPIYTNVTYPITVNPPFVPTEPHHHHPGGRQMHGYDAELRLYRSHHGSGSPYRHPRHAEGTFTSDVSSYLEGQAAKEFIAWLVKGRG
fusion protein PRD, sequence (chain, as listed by the source): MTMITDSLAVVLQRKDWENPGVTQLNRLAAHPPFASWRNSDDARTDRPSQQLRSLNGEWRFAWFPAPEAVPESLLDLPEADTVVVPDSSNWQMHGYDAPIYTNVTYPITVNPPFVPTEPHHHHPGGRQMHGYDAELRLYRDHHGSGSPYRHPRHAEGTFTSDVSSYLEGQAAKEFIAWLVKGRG
fusion protein PRF, sequence (chain, as listed by the source): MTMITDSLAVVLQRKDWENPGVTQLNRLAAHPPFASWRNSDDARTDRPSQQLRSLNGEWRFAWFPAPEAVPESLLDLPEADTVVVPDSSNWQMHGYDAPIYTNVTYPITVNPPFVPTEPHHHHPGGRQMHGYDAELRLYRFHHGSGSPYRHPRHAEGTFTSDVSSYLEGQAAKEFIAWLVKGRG
fusion protein PRW, sequence (chain, as listed by the source): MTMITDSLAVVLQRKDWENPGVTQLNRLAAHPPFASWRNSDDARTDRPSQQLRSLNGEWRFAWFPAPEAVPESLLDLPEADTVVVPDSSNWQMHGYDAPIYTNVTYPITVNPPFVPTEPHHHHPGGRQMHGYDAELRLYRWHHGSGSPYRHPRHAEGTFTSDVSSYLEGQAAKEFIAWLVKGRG
fusion protein PRT, sequence (chain, as listed by the source): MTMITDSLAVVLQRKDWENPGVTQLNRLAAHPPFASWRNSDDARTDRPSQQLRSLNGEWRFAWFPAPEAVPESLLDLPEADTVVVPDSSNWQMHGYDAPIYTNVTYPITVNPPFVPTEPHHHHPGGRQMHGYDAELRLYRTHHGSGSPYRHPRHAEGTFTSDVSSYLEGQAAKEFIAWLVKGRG
fusion protein PRH, sequence (chain, as listed by the source): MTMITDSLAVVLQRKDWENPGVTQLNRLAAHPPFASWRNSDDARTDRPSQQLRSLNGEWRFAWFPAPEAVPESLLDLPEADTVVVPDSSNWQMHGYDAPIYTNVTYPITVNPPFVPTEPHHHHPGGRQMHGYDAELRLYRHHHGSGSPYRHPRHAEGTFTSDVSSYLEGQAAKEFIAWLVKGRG
fusion protein PRE, sequence (chain, as listed by the source): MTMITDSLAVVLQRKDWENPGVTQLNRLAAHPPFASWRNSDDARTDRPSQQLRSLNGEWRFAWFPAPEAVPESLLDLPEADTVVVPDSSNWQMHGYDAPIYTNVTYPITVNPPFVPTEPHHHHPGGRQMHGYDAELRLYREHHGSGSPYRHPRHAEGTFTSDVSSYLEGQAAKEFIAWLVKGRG
human adrenocorticotropic hormone(1-24) fusion protein PAC, sequence (chain, as listed by the source): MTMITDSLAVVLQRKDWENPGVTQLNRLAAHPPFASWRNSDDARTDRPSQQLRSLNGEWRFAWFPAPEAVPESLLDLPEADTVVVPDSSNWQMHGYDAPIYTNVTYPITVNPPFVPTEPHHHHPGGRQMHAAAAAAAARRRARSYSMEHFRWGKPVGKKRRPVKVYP
motilin fusion protein PMT7D, sequence (chain, as listed by the source): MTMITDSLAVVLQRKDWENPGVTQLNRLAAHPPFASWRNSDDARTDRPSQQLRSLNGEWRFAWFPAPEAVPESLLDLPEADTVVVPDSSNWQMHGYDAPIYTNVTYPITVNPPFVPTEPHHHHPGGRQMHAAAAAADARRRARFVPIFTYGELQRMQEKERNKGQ
fusion protein PRMT, sequence (chain, as listed by the source): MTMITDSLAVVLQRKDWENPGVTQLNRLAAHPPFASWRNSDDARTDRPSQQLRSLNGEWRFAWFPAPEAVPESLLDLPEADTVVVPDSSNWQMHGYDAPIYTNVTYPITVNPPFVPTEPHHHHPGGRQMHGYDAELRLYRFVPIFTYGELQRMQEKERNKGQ
human calcitonin precursor fusion protein PCT, sequence (chain, as listed by the source): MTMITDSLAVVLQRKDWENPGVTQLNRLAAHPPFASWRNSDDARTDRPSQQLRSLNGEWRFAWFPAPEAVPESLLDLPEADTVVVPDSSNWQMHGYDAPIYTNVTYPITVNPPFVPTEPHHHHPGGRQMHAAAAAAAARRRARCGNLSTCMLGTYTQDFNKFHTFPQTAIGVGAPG

B1: OmpT protease variant OmpT D97M (protein)
chain: STETLSFTPDNINADISLGTLSGKTKERVYLAEEGGRKVSQLDWKFNNAAIIKGAINWDLMPQISIGAAGWTTLGSRGGNMVDQDWMDSSNPGTWTMESRHPDTQLNYANEFDLNIKGWLLNEPNYRLGLMAGYQESRYSFTARGGSYIYSSEEGFRDDIGSFPNGERAIGYKQRFKMPYIGLTGSYRYEDFELGGTFKYSGWVESSDNDEHYDPGKRITYRSKVKDQNYYSVAVNAGYYVTPNAKVYVEGAWNRVTNKKGNTSLYDHNNNTSDYSKNGAGIENYNFITTAGLKYTF
In the case of B1, the “amount of motilin released, against PRMT” value in the data set with fusion protein PMT is reported as “the amount of motilin released from PMT was 3.5 times higher than from PRMT”. The “by-product AR-motilin (motilin = 100)” value with fusion protein PMT is “By-products were yielded at 2.8 and 33% with PMT”; in data set [1], “at 3.5 and 16% with PMT6D”. The “by-product RRAR-motilin (motilin = 100)” value with fusion protein PMT was “By-products were yielded at 2.8 and 33% with PMT”; in data set [1], “at 3.5 and 16% with PMT6D”. Besides, the “digestion (SDS-PAGE), co-expressed inclusion bodies” value with fusion protein PMT is “reaction of 1440 minutes, i.e. 24 hours, caused virtually complete digestion of the fusion protein PMT”. The motilin released entry with fusion protein PMT was “Motilin was released at 280, 250 and 370 µg/mL from the motilin fusion proteins PMT, PMT6D and PMT7D, respectively”; in data set [1] it was “Motilin was released at 280, 250 and 370 µg/mL from the motilin fusion proteins PMT, PMT6D and PMT7D, respectively”; in data set [2], “Motilin was released at 280, 250 and 370 µg/mL from the motilin fusion proteins PMT, PMT6D and PMT7D, respectively”. Moreover, the relative cleavage efficiency: Motilin (Arg^143-Phe^144) with fusion protein PMT (scale: relative) was found to be 78. Also, the relative cleavage efficiency: RRAR-motilin (Arg^139-Arg^140) in the data set with fusion protein PMT (scale: relative) is 24. The relative cleavage efficiency with fusion protein PRA is 6%; with fusion protein PRC, 6.5%; in the data set with fusion protein PRD, “less than 3%”; in the data set with fusion protein PRE, “less than 3%”; with fusion protein PRF, 7.7%; with fusion protein PRG it was “less than 3%”. Further, the relative cleavage efficiency result in the data set with fusion protein PRH is “less than 3%”; with fusion protein PRI, less than 3%; with fusion protein PRK, less than 3%; with fusion protein PRL it was “less than 3%”; with fusion protein PRM, less than 3%; in the data set with fusion protein PRN, less than 3%. In addition, the relative cleavage efficiency result in the data set with fusion protein PRP is “less than 3%”; in the data set with fusion protein PRQ it was “less than 3%”; with fusion protein PRR it was less than 3%; in the data set with fusion protein PRS it was 7.1%; in the data set with fusion protein PRT it was less than 3%; in the data set with fusion protein PRW, “less than 3%”. Moreover, the relative cleavage efficiency in the data set with fusion protein PRY is 6.2%. This protein also gave a relative cleavage efficiency: Motilin (Arg^140-Phe^141) with fusion protein PRMT of 22. The “by-product RRAR-motilin” value in data set [2] was “no peak for RRAR-motilin was detected with PMT7D”.

B2: OmpT protease variant OmpT D97H (protein)
chain: B1 chain with M97H
With B2, the relative cleavage efficiency is 8.4% with fusion protein PRA; 11% with fusion protein PRC; “less than 3%” in the data set with fusion protein PRD; “less than 3%” in the data set with fusion protein PRE; 4.1% in the data set with fusion protein PRF; “less than 3%” with fusion protein PRG. Also, the relative cleavage efficiency entry with fusion protein PRH is “less than 3%”; in the data set with fusion protein PRI it was 3.1%; with fusion protein PRK, 4.5%; with fusion protein PRL, “less than 3%”; with fusion protein PRM, 4.6%; with fusion protein PRN, 3.5%. The relative cleavage efficiency entry is “less than 3%” with fusion protein PRP; “less than 3%” with fusion protein PRQ; 4.6% with fusion protein PRR; 8.7% with fusion protein PRS; 3% with fusion protein PRT; “less than 3%” with fusion protein PRW. In addition, the relative cleavage efficiency in the data set with fusion protein PRY was less than 3%. The “cleavage (HPLC, mass analysis)” value in [3] was “PCT was cleaved at Arg^139-Arg^140. Arg^141-Ala^142 and Arg^143-Cys^144 by D97H, releasing RRAR-CT, AR-CT and human calcitonin precursor”.

B3: OmpT protease variant OmpT D97L (protein)
chain: B1 chain with M97L
As to B3, the relative cleavage efficiency was 7.1% with fusion protein PRA; 3.9% in the data set with fusion protein PRC; “less than 3%” with fusion protein PRD; “less than 3%” with fusion protein PRE; 4.7% with fusion protein PRF; “less than 3%” with fusion protein PRG. For the same protein, the relative cleavage efficiency result in the data set with fusion protein PRH is “less than 3%”; with fusion protein PRI it was less than 3%; in the data set with fusion protein PRK, less than 3%; with fusion protein PRL it was “less than 3%”; with fusion protein PRM, less than 3%; in the data set with fusion protein PRN, less than 3%. For the same protein, the relative cleavage efficiency result with fusion protein PRP was “less than 3%”; with fusion protein PRQ it was “less than 3%”; with fusion protein PRR, less than 3%; with fusion protein PRS it was 9.1%; in the data set with fusion protein PRT, less than 3%; with fusion protein PRW, “less than 3%”. Besides, the relative cleavage efficiency with fusion protein PRY was 3.2%. Besides, the by-products entry in data set [4] is on record as “No by-products were released by cleavage at other sites”. Besides, in data set [4], the “release of human adrenocorticotropic hormone(1-24), against wild-type OmpT protease” value is recorded as “released human adrenocorticotropic hormone(1-24) at 2.9 times compared to wild-type OmpT protease”.

B4: OmpT protease variant OmpT D97R (protein)
chain: B1 chain with M97R
In the case of B4, the relative cleavage efficiency result with fusion protein PRA, in the data set with fusion protein PRC, with fusion protein PRD, in the data set with fusion protein PRE, in the data set with fusion protein PRF and with fusion protein PRG was “less than 3.0%” in each case. The relative cleavage efficiency entry with fusion protein PRH, with fusion protein PRI, with fusion protein PRK, with fusion protein PRL, with fusion protein PRM and with fusion protein PRN was “less than 3.0%” throughout. The relative cleavage efficiency result in the data set with fusion protein PRP, in the data set with fusion protein PRQ, with fusion protein PRR, with fusion protein PRS, with fusion protein PRT and with fusion protein PRW was “less than 3.0%” each time. For the same protein, the relative cleavage efficiency result in the data set with fusion protein PRY was “less than 3.0%”.
